In publication PMC2933840:

Target: Flag-Lrp4-mCherry (mouse) (UniProt Q8VI56)
Assay: flow cytometry on cells

UniProt Q8VI56, sequence (Q8VI56 21-1905): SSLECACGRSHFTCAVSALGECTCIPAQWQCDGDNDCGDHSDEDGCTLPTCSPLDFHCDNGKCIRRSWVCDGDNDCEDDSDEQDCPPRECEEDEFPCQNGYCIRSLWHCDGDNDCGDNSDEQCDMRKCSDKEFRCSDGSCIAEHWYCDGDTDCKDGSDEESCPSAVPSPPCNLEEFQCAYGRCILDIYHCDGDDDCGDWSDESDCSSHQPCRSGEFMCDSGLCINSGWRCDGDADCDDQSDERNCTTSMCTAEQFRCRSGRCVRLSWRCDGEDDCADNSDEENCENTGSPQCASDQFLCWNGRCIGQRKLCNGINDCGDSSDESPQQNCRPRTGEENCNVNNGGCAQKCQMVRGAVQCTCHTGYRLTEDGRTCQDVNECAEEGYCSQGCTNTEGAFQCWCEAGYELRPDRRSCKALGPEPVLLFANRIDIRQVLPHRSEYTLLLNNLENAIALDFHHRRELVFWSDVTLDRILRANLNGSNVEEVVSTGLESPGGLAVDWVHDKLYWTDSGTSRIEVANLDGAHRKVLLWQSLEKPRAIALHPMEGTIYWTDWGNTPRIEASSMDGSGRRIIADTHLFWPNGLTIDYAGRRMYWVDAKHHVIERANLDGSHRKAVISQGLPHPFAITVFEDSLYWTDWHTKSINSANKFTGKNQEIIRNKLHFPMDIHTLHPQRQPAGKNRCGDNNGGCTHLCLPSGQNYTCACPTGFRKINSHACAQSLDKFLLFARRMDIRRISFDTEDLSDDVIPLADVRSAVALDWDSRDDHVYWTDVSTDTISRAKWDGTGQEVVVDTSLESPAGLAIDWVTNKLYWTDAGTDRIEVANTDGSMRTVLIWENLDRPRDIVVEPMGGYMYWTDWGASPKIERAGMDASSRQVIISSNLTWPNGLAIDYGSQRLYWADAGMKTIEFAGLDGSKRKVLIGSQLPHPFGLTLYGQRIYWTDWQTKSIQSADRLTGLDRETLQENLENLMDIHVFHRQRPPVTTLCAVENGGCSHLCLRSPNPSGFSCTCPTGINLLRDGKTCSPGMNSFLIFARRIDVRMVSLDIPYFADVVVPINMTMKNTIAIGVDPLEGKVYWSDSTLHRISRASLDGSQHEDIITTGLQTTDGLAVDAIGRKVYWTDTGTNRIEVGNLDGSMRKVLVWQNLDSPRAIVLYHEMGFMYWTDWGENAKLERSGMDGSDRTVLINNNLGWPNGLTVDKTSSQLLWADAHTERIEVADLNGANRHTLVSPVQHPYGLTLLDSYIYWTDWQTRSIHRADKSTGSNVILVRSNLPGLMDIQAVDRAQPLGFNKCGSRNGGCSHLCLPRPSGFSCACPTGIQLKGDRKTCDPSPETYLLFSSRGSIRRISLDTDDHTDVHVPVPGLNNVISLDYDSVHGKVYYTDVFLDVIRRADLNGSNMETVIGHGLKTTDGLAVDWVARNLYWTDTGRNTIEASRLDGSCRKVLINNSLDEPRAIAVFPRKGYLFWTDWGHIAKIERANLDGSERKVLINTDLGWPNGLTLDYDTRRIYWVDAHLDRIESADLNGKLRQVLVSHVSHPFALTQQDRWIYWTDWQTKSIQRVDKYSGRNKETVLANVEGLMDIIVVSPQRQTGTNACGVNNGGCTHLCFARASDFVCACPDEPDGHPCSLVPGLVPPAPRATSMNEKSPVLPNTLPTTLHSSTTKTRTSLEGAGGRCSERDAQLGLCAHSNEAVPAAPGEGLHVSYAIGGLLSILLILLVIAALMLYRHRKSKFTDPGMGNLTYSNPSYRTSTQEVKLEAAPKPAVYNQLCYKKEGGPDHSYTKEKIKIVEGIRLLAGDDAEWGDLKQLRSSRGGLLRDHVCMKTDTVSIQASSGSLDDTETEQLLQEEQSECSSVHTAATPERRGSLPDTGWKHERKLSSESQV

| fold higher affinity of Agrin B8 than of Agrin B0 [fold] | EC50 [nM] | fold increase of binding with calcium against without calcium [fold] | Substance |
| --- | --- | --- | --- |
| 100 |  |  | 50 kd C-terminal fragment of Agrin B0 (domain or fragment) |
|  | 6 | 20 | 50 kd C-terminal fragment of Agrin B8 (domain or fragment) |
